No end group written: not given here.
T1: PACAP-R3 (human, UniProt P41587 24-438)
T1 sequence (looked up): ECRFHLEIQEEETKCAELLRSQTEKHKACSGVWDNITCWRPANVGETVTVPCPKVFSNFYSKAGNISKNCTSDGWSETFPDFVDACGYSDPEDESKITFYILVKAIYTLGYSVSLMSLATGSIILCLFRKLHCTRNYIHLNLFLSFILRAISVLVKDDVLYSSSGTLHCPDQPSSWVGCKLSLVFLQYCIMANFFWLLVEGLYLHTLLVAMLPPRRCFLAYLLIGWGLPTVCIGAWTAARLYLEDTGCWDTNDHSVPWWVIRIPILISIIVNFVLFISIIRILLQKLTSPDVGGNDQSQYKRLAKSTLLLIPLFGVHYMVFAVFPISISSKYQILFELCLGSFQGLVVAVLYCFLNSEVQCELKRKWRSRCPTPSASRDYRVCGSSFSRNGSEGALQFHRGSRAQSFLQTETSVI


The binders below were run against T1, PACAP-R3 (assay: cell-based or functional assay).

Binder	R3 Selectivity [ratio]	R3 EC50 [nM]
HSDAVFTDNYTRLRKQMAAKKYLNSIKKKRY [R3P52]	> 250	
HSDAVFTDNYTRLRKQMAAKKYLNSIKNKRY [R3P55]	280	
HSDAVFTDNYTRLRKQMAAKKYLQSIKNKRY [R3P69]	190	
HSDAVFTDNYTRLRKQMAAKKYLNTIKNKRY [R3P70]	> 250	
HSDAVFTDNYTRLRKQVAAKKYLQSIKNKRY [R3P66]	250	
HSDAVFTDNYTRLRKQMAAKHYLNSIKNKRY [R3P74]	150	
HSDAVFTDNYTRLRKQLAAKKYLNTIKNKRY [R3P67]	330	
HSDAVFTDNYTRLRKQMAVKKYLNSIKKKRY [R3P56]	100	
HSDAVFTDNYTRLRKQMAAHKYLNSIKNKRY [R3P73]	170	
HSDAVFTDNYTRLRKQMAVKKYLNSIKNKRY [R3P59]	70	
HSDAVFTDNYTRLRKQVAAKKYLQSILKKRY [R3P83]	60	
HSDAVFTDQYTRLRKQMAAKKYLNSIKNKRY [R3P71]	660	
HSDAVFTDNYTRLRKQVAAKKYLNSIKK [R3P62]	100	
HSDAVFTDNYTRLRKQVAAKKYLQSILNK [R3P93]	40	0.14
HSDAVFTDNYTRLRKQVAAKKYLQSIKK [R3P60]	120	
HSDAVFTDNYTRLRKQVAVKKYLQSILKK [R3P89]	15	
HSDAVFTENYTKLRKQLAAKKYLNDLKK [R3P5]	30	
HSDGIFTDSYSRYRKQMAVKKYLAAVKQGGT-NH2 [R3P16]	1.4	
HSDAVFTENYTKLRKQLAAKKYLNDLKKGGT [R3P3]	130	
HSDAVFTENYTKLRKQLAAKKYLNDLLNGGT [R3P10]	0.3	

Binder	R3 Selectivity [ratio]	R3 EC50 [nM]
HSDAVFTDNYTRLRKQVAAKKYLQSILKK [R3P85]	30	
HSDAVFTDNYTRLRKQVAAKKYLQSILKKR [R3P84]	40	
HSDGIFTDSYSRYRKQLAVKKYLAAVKK [R3P39]	2	
HSDAVFTDNYTRLRKQMAVKKYLNSIKKK [R3P58]	170	
HSDGIFTDSYSRYRKQLAAKKYLADVKKGGT [R3P37]	18	
HSDAVFTDNYTRLRKQMAVKKYLNSIKKKR [R3P57]	190	
HSDAVFTDNYTRLRKQMAAKKYLNSILN [R3P47]	6	
HSDAVFTDNYTRLRKQMAVKKYLNDILN [R3P48]	8	
HSDAVFTDNYTRLRKQMACKKYLNSIKNKR [R3P94]	100	0.09
HSDAVFTDNYTRLRKQVAAKKYLQSILNKR [R3P92]	100	0.02
HSDAVFTDNYTRLRKQLAAKKYLNDILKGGT [R3P23]	23	
HSDAVFTDNYTRLRKQLAVKKYLNDILKGGT [R3P28]	1	
HSDAVFTDNYTRLRKQLAAKKYLNDILNGGT [R3P27]	8	
HSDAVFTDNYTRLRKQMAAKKYLNSIKK [R3P51]	90	
HSDGIFTDSYSRYRKQMAVKKYLAAVKK [R3P40]	2	
HSDAVFTDQYTRLRKQLAAKKYLNTIKNKRY [R3P72]	> 600	
HSDAVFTDQYTRLRKQLAAHKYLNTIKNKRY [R3P75]	> 500	
HSDAVFTDNYTRLRKQMAVKKYLNSIKKGGT [R3P9]	20	
HSDAVFTDNYTRLRKQLAVKKYLNSILN [R3P46]	7	
HSDAVFTDNYTRLRKQMAAKKYLNSIKKKR [R3P53]	2500	

Binder	R3 Selectivity [ratio]	R3 EC50 [nM]
HSDAVFTDNYTRLRKQMAAKKYLNSIKN [R3P49]	30	
HSDAVFTDNYTRLRKQVAVKKYLQSIKNKRY [R3P82]	23	
HSDAVFTDNYTRLRKQVAVKKYLQSILKKRY [R3P87]	3	
HSDAVFTDNYTRLRKQVAAKKYLNSIKKKR [R3P78]	230	
HSDAVFTENYTRLRKQMAVKKYLNSLKK-NH2 [R3P7]	0.5	
HSDGIFTESYSRYRKQMAVKKYLAALKKKRYKQRVKNK [R3P6]	3	
HSDAVFTDNYTRLRKQMAAKKYLNSILK [R3P50]	6	
HSDAVFTDNYTRLRKQIAAKKYLQTIKK [R3P61]	140	
HSDGIFTDSYSRYRKQLAAKKYLADVKK [R3P38]	7	
HSDAVFTDNYTRLRKQVAVKKYLQSILKKR [R3P88]	12	
HSDAVFTDNYTRLRKQVAVKKYLQSIKKK [R3P81]	100	
HSDAVFTDNYTRLRKQMAAKKYLNSIKNKR [R3P65]	130	
HSDAVFTDNYTRLRKQMAVKKYLNSIKK-NH2 [R3P8]	1.5	
HSDGIFTDSYSRYRKQMAVKKYLAAVKKYLAAVRHG-NH2 [R3P17]	2	
HSDAVFTDNYTRLRKQVAAKKYLQSIKNK [R3P86]	110	
Ac-HSDAVFTENYTKLRKQLAAKKYLNDLKKGGT (ends and bridges not checked) [R3P2]	> 300	
HSDAVFTDNYTRLRKQVAAKKYLQSIKKKR [R3P77]	500	
HSDAVFTDNYTRLRKQMAAKKYLNSIKKK [R3P54]	> 200	
